Data taken from FireProtDB (doi:10.1006/jmbi.2001.5050).

Conditions: Bacillus caldolyticus, pH 7, CD, sodium cacodylate-HCl 100 mM, reversible: yes, whole UniProt chain shown

B1: Cold shock protein CspB wild type, P41016 (protein)
chain: MQRGKVKWFNNEKGYGFIEVEGGSDVFVHFTAIQGEGFKTLEEGQEVSFEIVQGNRGPQAANVVKL
denaturant m value (25 °C, GdnHCl): 1.77 kcal/mol/M
denaturant midpoint (higher = more stable) (25 °C, GdnHCl): 2.68 M
unfolding free energy (25 °C, GdnHCl): 1.2 kcal/mol
unfolding free energy (70 °C, Thermal, NaCl 2 M): 2.2 kcal/mol
unfolding free energy (70 °C, Thermal): 1.08 kcal/mol
Tm (Thermal): 76.9 °C
unfolding enthalpy (van 't Hoff) (Thermal): 58.6 kcal/mol
